Assay results from patent publication US20150100046A1, “INTRAOCULAR DRUG DELIVERY DEVICE AND ASSOCIATED METHODS” (priority 2013, published 2015).

Test: Ocular tissue drug concentration by ELISA after implantation of loaded intraocular device
Assay type: in vivo, New Zealand white rabbits
Details: intraocular device loaded with Avastin implanted in lens capsule after lens extraction, 1 week post implantation
Excerpt: Three intraocular devices were implanted into eyes of New Zealand white rabbits under general anesthesia after lens extraction (phacoemulsification technique). Two of the devices were loaded with Avastin® (bevacizumab) and one was loaded with the contrast agent gadolinium-labeled albumin (Galbumin™) as a control. Proper intraocular device position was verified by MRI as well as clinical examination.
The rabbits were sacrificed and the eyes are removed and assayed after 1 week post implantation. Bevacizumab (Avastin®) was detected by ELISA in the retina and vitreous at concentrations of 24-48 mcg/mL, and was not present in the control rabbit eye.

## bevacizumab [Bevacizumab (Avastin®)]
  concentration detected by ELISA in the retina and vitreous: 24000 to 48000 ng/mL
